Our source for the Po and stoichiometry N values is article PMC6093708, “Ligand discrimination and gating in cyclic nucleotide-gated ion channels from apo and partial agonist-bound cryo-EM structures” (eLife, 2018).

The stoichiometry N is a count of units in the complex or per binding partner.

One assay addresses T1, SthK (Winmispira thermophila, UniProt G0GA88).
T1 construct: gene Spith_0644; C-terminally truncated SthK 1-420; 19 extra N-terminal vector residues kept; expressed in E. coli C41(DE3); homotetramer in POPG/MSP1E3 nanodiscs or liposomes
In words: single-channel recording in horizontal lipid bilayer. In kind it is biochemical. Particulars: very poor partial agonist; 7 mM cGMP; +100 mV; KCl, pH 7.0.

Assay [1] addresses SthK 1-420, cyclic nucleotide-gated potassium channel from Spirochaeta thermophila (Spirochaeta thermophila). As to the kind of experiment: negative stain electron microscopy; SthK in lipid nanodiscs (20 ug/mL), uranyl acetate stain, 2D classification.
The target is the same in assay [2]. As to the kind of experiment: cryo-EM structure; SthK in POPG/MSP1E3 lipid nanodiscs; apo, with 2 mM cAMP or with 7 mM cGMP; 20 mM HEPES pH 8.0, 100 mM KCl; refined with C4 symmetry and without symmetry (C1).

T1 sequence (G0GA88 entry or part of it): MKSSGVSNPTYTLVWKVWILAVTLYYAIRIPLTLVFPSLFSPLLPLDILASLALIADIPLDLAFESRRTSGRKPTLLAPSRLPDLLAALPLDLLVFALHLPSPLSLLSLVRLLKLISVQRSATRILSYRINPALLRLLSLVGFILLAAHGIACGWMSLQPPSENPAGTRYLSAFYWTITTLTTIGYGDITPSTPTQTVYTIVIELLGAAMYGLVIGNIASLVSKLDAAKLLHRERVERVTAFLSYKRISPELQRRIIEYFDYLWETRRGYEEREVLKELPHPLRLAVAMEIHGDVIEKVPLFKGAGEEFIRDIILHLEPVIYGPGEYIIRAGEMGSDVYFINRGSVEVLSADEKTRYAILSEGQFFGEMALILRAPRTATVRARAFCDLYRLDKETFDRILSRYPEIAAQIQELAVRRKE

On to `Nc1nc2c(ncn2[C@@H]2O[C@@H]3COP(=O)(O)O[C@H]3[C@H]2O)c(=O)[nH]1` [cGMP], for which the Po on SthK is reported as ~ 0.003. In the case of “SthK 1-420, cyclic nucleotide-gated potassium channel from Spirochaeta thermophila (natural protein)”, the stoichiometry N in assay [1] and in assay [2] was 4 each time.
